Results on 5 molecules are retold here after patent US7842469B2, “Bioluminescence resonance energy transfer (BRET) systems and methods of use thereof” (Stanford University, priority 2005, dated 2010).

Residue numbers refer to the chain shown, from its start. Names and notes keep the numbering of the source.

B1: C124A/L203R: RLuc mutant C124A/L203R (protein)
chain: MASKVYDPEQRKRMITGPQWWARCKQMNVLDSFINYYDSEKHAENAVIFLHGNAASSYLWRHVVPHIEPVARCIIPDLIGMGKSGKSGNGSYRLLDHYKYLTAWFELLNLPKKIIFVGHDWGAALAFHYSYEHQDKIKAIVHAESVVDVIESWDEWPDIEEDIALIKSEEGEKMVLENNFFVETMLPSKIMRKLEPEEFAAYREPFKEKGEVRRPTLSWPREIPLVKGGKPDVVQIVRNYNAYLRASDDLPKMFIESDPGFFSNAIVEGAKKFPNTEFVKVKGLHFSQEDAPDEMGKYIKSFVERVLKNEQ
B2: C124A/Q235A: RLuc mutant C124A/Q235A (protein)
chain: B1 chain with R203L, Q235A
B3: C124A/S257G: RLuc mutant C124A/S257G (protein)
chain: B1 chain with R203L, S257G
B4: C124A/G229E: RLuc mutant C124A/G229E (protein)
chain: B1 chain with R203L, G229E
B5: C124A/F262L: RLuc mutant C124A/F262L (protein)
chain: B1 chain with R203L, F262L

One series is described as follows: Luciferase activity of purified RLuc mutants (light output integrated over 10 s, luminometer). It counts as biochemical. As to conditions: benzyl-coelenterazine; relative to native enzyme. The text has this: Luminometer Calibration: Light measurements were made using a Turner 20/20 and later a Turner 20/20n luminometer (Turner Designs, Sunnyvale, Calif.). The luminometers were calibrated to absolute units (photons/s) using the luminol light standard performed in dimethyl sulfoxide (DMSO). No corrections were applied for the spectral sensitivity of the luminometer, as the spectral peak of luminol chemiluminescence in DMSO (486 nm) is close to the spectral peak of Renilla Luciferase bioluminescence (482 nm).
Characterization of Renilla Luciferase Mutants: Luciferase activity was measured by adding 1 μl of sample (diluted as necessary in EB containing 1% HSA) to 100 μl room temperature 100 mM sodium phosphate buffer (pH 7), manually adding 1 μl of 0.5 μg/μl coelenterazine or analog, manually mixing, and reading for 10 s in a luminometer. The time between the addition of the luciferin and the start of measurement was approximately 4 s.
In the case of B1, the “Activity (relative to RLuc) bc” value is 0.55.

As for B2, the “Activity (relative to RLuc) bc” value came out at 1.1.

As to B3, the “Activity (relative to RLuc) bc” value came to 0.95.

Take B4: the “Activity (relative to RLuc) bc” value is reported as 0.01.

Take B5: the “Activity (relative to RLuc) bc” value was determined as 0.03.

The same series, now with this note: bisdeoxycoelenterazine; relative to native enzyme.
B1: the “Activity (relative to RLuc) bdc” value was found to be 0.43.

For the molecule B2, the “Activity (relative to RLuc) bdc” value was 1.2.

For B3, the “Activity (relative to RLuc) bdc” value was determined as 3.0.

Regarding B4, the “Activity (relative to RLuc) bdc” value is given as 0.01.

On to B5, for which the “Activity (relative to RLuc) bdc” value is listed as 0.03.

The series is the same for the next values; noted with them: coelenterazine-cp; relative to native enzyme.
B1: the “Activity (relative to RLuc) cp” value was 0.52.

With B2, the “Activity (relative to RLuc) cp” value is reported as 1.1.

With B3, the “Activity (relative to RLuc) cp” value is listed as 1.3.

For B4, the “Activity (relative to RLuc) cp” value is 0.03.

With B5, the “Activity (relative to RLuc) cp” value is on record as 0.01.

The same series, now with this note: coelenterazine-n; relative to native enzyme.
Consider B1, for which the “Activity (relative to RLuc) n” value worked out at 0.41.

For the molecule B2, the “Activity (relative to RLuc) n” value was 1.0.

Turning to B3, the “Activity (relative to RLuc) n” value turned out to be 1.1.

In the case of B4, the “Activity (relative to RLuc) n” value is given as 0.03.

With B5, the “Activity (relative to RLuc) n” value turned out to be 0.06.

Staying with this series, now noted: native coelenterazine; relative to native enzyme.
For B1, the “Activity (relative to RLuc) native” value is on record as 0.55.

For the molecule B2, the “Activity (relative to RLuc) native” value was 1.2.

With B3, the “Activity (relative to RLuc) native” value is on record as 1.1.

Regarding B4, the “Activity (relative to RLuc) native” value stood at 0.02.

B5: the “Activity (relative to RLuc) native” value was determined as 0.03.

Another series in a line: Serum stability in mouse serum at 37° C. The class given is in vitro ADME. As to conditions: mouse serum, 37° C., mono-exponential fit. Here is the method:
(§1) Serum stability measurements were done by mixing 0.5 μl dilute Luciferase with either 20 μl mouse serum or 50 μl rat serum (Equitech-Bio, Kerrville, Tex.) placing the sample in a 37° C. incubator, and removing aliquots for activity testing. To calculate serum half-lives, mono-exponential decay curves were fit to the serum stability data using a Nelder/Mead Simplex non-linear least squares minimization algorithm provided by the Octave numerical programming language. Emission spectra at ambient temperature were measured using a Triax 320 (Horiba Jobin Yvon, Edison, N.J.), which incorporates an optical grating device with a liquid N2 cooled CCD detector.
B1: the “Serum τ1/2 (h) mouse” value is recorded as 2.7 h.

B2: the “Serum τ1/2 (h) mouse” value came out at 3.3 h.

For B3, the “Serum τ1/2 (h) mouse” value turned out to be 1.3 h.

As to B4, the “Serum τ1/2 (h) mouse” value is on record as 1.9 h.

Take B5: the “Serum τ1/2 (h) mouse” value is reported as 5.8 h.

The nature of the next series: Serum stability in rat serum at 37° C. The class given is in vitro ADME. As to conditions: mono-exponential fit. The procedure: as §1
Consider B1, for which the “Serum τ1/2 (h) rat” value worked out at 2.2 h.

For B2, the “Serum τ1/2 (h) rat” value amounted to 3.6 h.

As for B3, the “Serum τ1/2 (h) rat” value is listed as 1.4 h.

Turning to B4, the “Serum τ1/2 (h) rat” value is recorded as 1.8 h.

On to B5, for which the “Serum τ1/2 (h) rat” value is 6.4 h.

The nature of a further series: Bioluminescence emission spectra. As to conditions: emission spectrum with native coelenterazine. It counts as physicochemical. The procedure: as §1
Turning to B1, the “Wavelength (nm) mean” value came to 501 nm and the “Wavelength (nm) peak” value turned out to be 484 nm.

Regarding B2, the “Wavelength (nm) mean” value came out at 489 nm and the “Wavelength (nm) peak” value is given as 473 nm.

For the molecule B3, the “Wavelength (nm) mean” value is 493 nm and the “Wavelength (nm) peak” value is reported as 477 nm.

In the case of B4, the “Wavelength (nm) mean” value is reported as 490 nm and the “Wavelength (nm) peak” value is given as 473 nm.

As for B5, the “Wavelength (nm) mean” value is given as 495 nm and the “Wavelength (nm) peak” value turned out to be 478 nm.
